The target of the test is recombinant SARS-CoV-2 RBD of original WT strain (SARS-CoV-2) (UniProt P0DTC2). Kind of test: SPR. On the technique in general: SPR reads the build-up and loss of mass on a sensor chip optically.

Here are results for one substance from article PMC9822811.

As to REGN-10933, the Kd was 0.576 nM.

What is called Kd is a measure of binding affinity in units of concentration.
